{
  "source": "patent US20160102121A1",
  "about": "(UNIVERSITY OF NORTH CAROLINA AT CHAPEL HILL, published 2016)",
  "target": "epithelial Na+ channel (ENaC) on human bronchial epithelial cultures (human, UniProt P37088 1-669; P51168 1-640; P51170 1-649)",
  "sequence (P37088 whole entry, chain 1 of 3)": "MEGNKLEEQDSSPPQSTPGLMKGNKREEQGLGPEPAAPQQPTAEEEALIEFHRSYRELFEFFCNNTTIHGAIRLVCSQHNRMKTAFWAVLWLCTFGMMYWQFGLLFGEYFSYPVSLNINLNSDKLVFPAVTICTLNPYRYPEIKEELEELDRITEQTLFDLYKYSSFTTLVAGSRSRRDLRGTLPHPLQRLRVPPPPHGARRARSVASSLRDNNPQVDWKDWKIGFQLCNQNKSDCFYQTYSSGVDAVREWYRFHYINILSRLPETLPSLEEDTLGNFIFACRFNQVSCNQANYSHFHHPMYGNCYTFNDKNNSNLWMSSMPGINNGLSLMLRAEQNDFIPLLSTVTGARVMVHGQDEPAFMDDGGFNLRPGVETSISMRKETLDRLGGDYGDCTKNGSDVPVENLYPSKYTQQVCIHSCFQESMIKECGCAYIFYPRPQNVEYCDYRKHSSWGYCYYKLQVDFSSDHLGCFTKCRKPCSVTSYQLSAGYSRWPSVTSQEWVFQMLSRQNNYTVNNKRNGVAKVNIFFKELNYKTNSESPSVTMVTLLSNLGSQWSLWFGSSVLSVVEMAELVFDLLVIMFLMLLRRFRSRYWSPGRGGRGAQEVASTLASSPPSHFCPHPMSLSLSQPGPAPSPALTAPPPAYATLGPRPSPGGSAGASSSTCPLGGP",
  "sequence (P51168 whole entry, chain 2 of 3)": "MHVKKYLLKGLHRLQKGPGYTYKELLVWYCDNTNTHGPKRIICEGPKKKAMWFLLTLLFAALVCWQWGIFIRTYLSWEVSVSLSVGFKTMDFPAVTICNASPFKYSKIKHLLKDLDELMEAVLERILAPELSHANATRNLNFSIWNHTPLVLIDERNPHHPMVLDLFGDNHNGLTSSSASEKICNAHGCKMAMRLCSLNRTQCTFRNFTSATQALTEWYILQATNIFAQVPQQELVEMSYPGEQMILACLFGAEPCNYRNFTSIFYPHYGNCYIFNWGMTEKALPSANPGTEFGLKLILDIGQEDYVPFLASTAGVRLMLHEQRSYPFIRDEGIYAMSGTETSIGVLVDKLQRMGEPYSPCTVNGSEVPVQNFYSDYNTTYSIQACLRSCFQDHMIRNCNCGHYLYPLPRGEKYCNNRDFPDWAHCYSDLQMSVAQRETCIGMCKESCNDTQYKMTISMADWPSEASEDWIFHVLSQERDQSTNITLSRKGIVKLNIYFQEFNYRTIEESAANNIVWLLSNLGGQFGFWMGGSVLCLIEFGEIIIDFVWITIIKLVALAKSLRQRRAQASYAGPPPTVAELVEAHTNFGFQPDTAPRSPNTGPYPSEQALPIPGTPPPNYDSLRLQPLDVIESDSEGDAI",
  "sequence (P51170 whole entry, chain 3 of 3)": "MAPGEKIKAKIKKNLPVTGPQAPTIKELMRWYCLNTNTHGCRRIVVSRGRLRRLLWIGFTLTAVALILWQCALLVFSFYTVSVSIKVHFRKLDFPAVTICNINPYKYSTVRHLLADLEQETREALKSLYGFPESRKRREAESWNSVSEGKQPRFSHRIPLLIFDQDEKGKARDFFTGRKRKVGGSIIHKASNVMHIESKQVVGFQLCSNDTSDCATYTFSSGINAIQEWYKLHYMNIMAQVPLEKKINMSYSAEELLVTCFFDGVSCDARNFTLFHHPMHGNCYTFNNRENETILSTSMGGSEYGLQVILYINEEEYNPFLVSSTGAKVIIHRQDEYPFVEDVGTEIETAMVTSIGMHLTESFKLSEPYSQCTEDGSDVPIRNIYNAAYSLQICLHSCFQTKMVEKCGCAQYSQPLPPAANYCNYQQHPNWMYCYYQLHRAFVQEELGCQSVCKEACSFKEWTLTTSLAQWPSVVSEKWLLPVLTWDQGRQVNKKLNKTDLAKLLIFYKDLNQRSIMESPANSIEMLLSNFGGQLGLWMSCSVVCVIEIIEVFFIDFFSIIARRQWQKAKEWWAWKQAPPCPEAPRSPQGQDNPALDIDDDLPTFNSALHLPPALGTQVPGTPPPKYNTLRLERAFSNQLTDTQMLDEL",
  "assay": "cell-based or functional assay",
  "note": "Where no end group is shown, it is not given here. [ ]: non-standard residue; d: D form. Nle = CCCC[C@H](N)C(=O)O",
  "data": [
    {"binder": "[dA][dA]LP[Nle]PLDQT[dA][dA]", "note": "[aaLPNlePLDQTaa (SEQ ID NO:5)]", "values": [
      {"measurement": "IC50, dose response on airway cells (ASL height)", "result": 30, "unit": "nM"}
    ]}
  ]
}
